One molecule from article PMC2760593 (Journal of biochemistry, 2008) can be followed below.

The test has as its target T1, polyhistidine (His)-tagged recombinant full-length CCN2 (UniProt P29279 27-349).
T1 sequence (looked up): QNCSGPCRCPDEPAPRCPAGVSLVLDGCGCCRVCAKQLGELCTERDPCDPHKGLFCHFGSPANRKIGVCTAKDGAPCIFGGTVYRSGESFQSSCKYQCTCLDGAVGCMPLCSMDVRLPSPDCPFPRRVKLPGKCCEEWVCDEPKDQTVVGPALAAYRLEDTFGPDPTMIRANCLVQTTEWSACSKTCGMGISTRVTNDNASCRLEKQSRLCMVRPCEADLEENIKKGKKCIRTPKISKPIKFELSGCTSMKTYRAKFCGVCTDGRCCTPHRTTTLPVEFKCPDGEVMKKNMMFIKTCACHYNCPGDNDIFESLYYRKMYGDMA
Put plainly: SPR.

B1: recombinant bone morphogenetic protein (BMP)-2 (ligand, UniProt P12643 283-396, looked up)
chain: QAKHKQRKRLKSSCKRHPLYVDFSDVGWNDWIVAPPGYHAFYCHGECPFPLADHLNSTNHAIVQTLVNSVNSKIPKACCVPTELSAISMLYLDENEKVVLKNYQDMVVEGCGCR
Regarding B1, the Kd came out at 770 pM.
